Test results as given in article PMC4137731, “C-Terminal Domain Swapping of SSB Changes the Size of the ssDNA Binding Site”.

B1: dT55 (ssDNA)
DNA: TTTTTTTTTTTTTTTTTTTTTTTTTTTTTTTTTTTTTTTTTTTTTTTTTTTTTTT
B2: dT65 (ssDNA)
DNA: TTTTTTTTTTTTTTTTTTTTTTTTTTTTTTTTTTTTTTTTTTTTTTTTTTTTTTTTTTTTTTTTT
B3: dT60 (ssDNA)
DNA: TTTTTTTTTTTTTTTTTTTTTTTTTTTTTTTTTTTTTTTTTTTTTTTTTTTTTTTTTTTT

Legend:
Conditions in all cases: protein: recombinant; tags: none (untagged); chain copies: 4; label: 5' 32P
StSSB [1] = molecular target: T1, StSSB (Salmonella enterica serovar Typhimurium …, UniProt P0A2F6 1-176); test: EMSA; monomer conc.; 1 complex; 20 mM Tris-HCl pH 8.0, 100 mM NaCl, 25°C 30 min, 1.7 nM DNA, protein 0-5000 nM; native 8% PAGE in TBE at 4°C
KpSSB [2] = molecular target: T2, KpSSB (Klebsiella pneumoniae subsp. pneumoniae …, UniProt A6TGW7 1-174); test: as above
PaSSB [3] = molecular target: T3, PaSSB (Pseudomonas aeruginosa PAO1, UniProt P40947 1-165); test: as above
StSSB [4] = molecular target: T1, StSSB; test: EMSA; monomer conc.; 2 complexes; 20 mM Tris-HCl pH 8.0, 100 mM NaCl, 25°C 30 min, 1.7 nM DNA, protein 0-5000 nM; native 8% PAGE in TBE at 4°C
KpSSB [5] = molecular target: T2, KpSSB; test: as above
PaSSB [6] = molecular target: T3, PaSSB; test: as above
KpSSB [7] = molecular target: T2, KpSSB; test: EMSA; no band shift up to 5000 nM; 20 mM Tris-HCl pH 8.0, 100 mM NaCl, 25°C 30 min, 1.7 nM DNA, protein 0-5000 nM; native 8% PAGE in TBE at 4°C

Binder	apparent K (half saturation) (StSSB [1])	apparent K (half saturation) (KpSSB [2])	apparent K (half saturation) (PaSSB [3])	further results
TTTTTTTTTTTTTTTTTTTTTTTTTTTTTT (ssDNA) [dT30]	420 ± 60 nM	–	–	–
TTTTTTTTTTTTTTTTTTTTTTTTTTTTTTTTTTTTTTTTTTTTT (ssDNA) [dT45]	–	100 ± 10 nM	780 ± 160 nM	apparent K (half saturation) (StSSB [4]): 440 ± 60 nM
B1	–	–	820 ± 90 nM	apparent K (half saturation) (KpSSB [5]): 100 ± 20 nM
B2	–	–	–	apparent K (half saturation) (PaSSB [6]): 550 ± 70 nM
TTTTTTTTTTTTTTTTTTTTTTTTTTTTTTTTTTT (ssDNA) [dT35]	–	220 ± 30 nM	950 ± 180 nM	–
TTTTTTTTTTTTTTT (ssDNA) [dT15]	650 ± 120 nM	–	–	–
TTTTTTTTTTTTTTTTTTTTTTTTTTTTTTTTTTTTTTTTTTTTTTTTTT (ssDNA) [dT50]	–	110 ± 20 nM	–	apparent K (half saturation) (StSSB [4]): 440 ± 50 nM
TTTTTTTTTTTTTTTTTTTTTTTTTTTTTTTTTTTTTTTT (ssDNA) [dT40]	420 ± 80 nM	–	–	–
TTTTTTTTTTTTTTTTTTTTTTTTT (ssDNA) [dT25]	–	200 ± 20 nM	1700 ± 250 nM	–
B3	–	–	–	apparent K (half saturation) (KpSSB [5]): 100 ± 10 nM; apparent K (half saturation) (PaSSB [6]): 810 ± 110 nM
TTTTTTTTTTTTTTTTTTTT (ssDNA) [dT20]	450 ± 80 nM	–	–	binding result (KpSSB [7]): no binding
